Test results as given in US20210292396A1 (INTERNATIONAL AIDS VACCINE INITIATIVE, published 2021).

Legend:
Experiment in all cases: cell-based or functional assay
[1] = biological target: HIV Env of isolate Ce1172_H1 (HIV)
[2] = biological target: HIV Env of isolate 0260.v5.c36 (HIV)
[3] = biological target: HIV Env of isolate 3817.v2.c59 (HIV)
[4] = biological target: HIV Env of isolate ZM247v1(Rev-) (HIV)
[5] = biological target: HIV Env of isolate 6244_13_B5_4576 (HIV)
[6] = biological target: HIV Env of isolate 1394C9G1(Rev-) (HIV)
[7] = biological target: HIV Env of isolate A07412M1.vrc12 (HIV)
[8] = biological target: HIV Env of isolate RHPA4259.7 (HIV)
HIV Env of isolate CNE20 = HIV Env of isolate CNE20 (HIV)
[9] = biological target: HIV Env of isolate CAAN5342.A2 (HIV)
[10] = biological target: HIV Env of isolate SC422661.8 (HIV)
[11] = biological target: HIV Env of isolate BJOX009000.02.4 (HIV)
[12] = biological target: HIV Env of isolate TRJO4551.58 (HIV)
[13] = biological target: HIV Env of isolate Du156.12 (HIV)
[14] = biological target: HIV Env of isolate 3301.v1.c24 (HIV)
[15] = biological target: HIV Env of isolate TRO.11 (HIV)
[16] = biological target: HIV Env of isolate Q23.17 (HIV)
[17] = biological target: HIV Env of isolate CAP210.2.00.E8 (HIV)
[18] = biological target: HIV Env of isolate 6535.3 (HIV)
[19] = biological target: HIV Env of isolate 246F_C1G (HIV)
[20] = biological target: HIV Env of isolate 1054_07_TC4_1499 (HIV)
[21] = biological target: HIV Env of isolate T211-9 (HIV)
[22] = biological target: HIV Env of isolate CAP45.2.00.G3 (HIV)
[23] = biological target: HIV Env of isolate HIV-001428-2.42 (HIV)
[24] = biological target: HIV Env of isolate SC05_8C11_2344 (HIV)
[25] = biological target: HIV Env of isolate WEAU_d15_410_5017 (HIV)
HIV Env of isolate CNE17 = HIV Env of isolate CNE17 (HIV)
HIV Env of isolate CNE53 = HIV Env of isolate CNE53 (HIV)
[26] = biological target: HIV Env of isolate T250-4 (HIV)
[27] = biological target: HIV Env of isolate ZM53M.PB12 (HIV)
[28] = biological target: HIV Env of isolate 1006_11_C3_1601 (HIV)
[29] = biological target: HIV Env of isolate Ce704809221_1B3 (HIV)
[30] = biological target: HIV Env of isolate 3103.v3.c10 (HIV)
[31] = biological target: HIV Env of isolate 928-28 (HIV)
[32] = biological target: HIV Env of isolate ZM109F.PB4 (HIV)
HIV Env of isolate CNE21 = HIV Env of isolate CNE21 (HIV)
HIV Env of isolate PVO.4 = HIV Env of isolate PVO.4 (HIV)
[33] = biological target: HIV Env of isolate 7030102001E5(Rev-) (HIV)
[34] = biological target: HIV Env of isolate P0402_C2_11 (HIV)
[35] = biological target: HIV Env of isolate 1056_10_TA11_1826 (HIV)
[36] = biological target: HIV Env of isolate 6811.v7.c18 (HIV)
HIV Env of isolate CNE58 = HIV Env of isolate CNE58 (HIV)
[37] = biological target: HIV Env of isolate 6240_08_TA5_4622 (HIV)
[38] = biological target: HIV Env of isolate AC10.0.29 (HIV)
[39] = biological target: HIV Env of isolate X2088_c9 (HIV)

B1: ePGT121.15.H6.L1 (antibody, V domains shown)
VH: QMQLQESGPGLVKPGETLSLTCSVSGASISSSYWSWLRETPGKGLEWIGYTHHSGDTNYAPSLKSRVHLGLHPSKNQVSLSLTSVTAADTAVYYCARTLHGRRIYGVVAFNEFFTYFYWEVWGKGTQVTVSS
VL: SDISVAPGETVRISCGGESIGSRAVQWYQHRAGQAPKLIIYNNQDRPPGIPERFSGSPDIDFGTTATLTITNVEAGDEATYYCHIWDSRRPTNWVFGGGTTLTVL
[1]
  neutralization (Table 6 value): 0.000952
[2]
  neutralization (Table 6 value): 0.00217
[3]
  neutralization (Table 6 value): 0.00361
[4]
  neutralization (Table 6 value): 0.00191
[5]
  neutralization (Table 6 value): 0.0055
[6]
  neutralization (Table 6 value): 0.00288
[7]
  neutralization (Table 6 value): 0.00204
[8]
  neutralization (Table 6 value): 0.00225
HIV Env of isolate CNE20
  neutralization (Table 6 value): 0.00133
[9]
  neutralization (Table 6 value): 0.00221
[10]
  neutralization (Table 6 value): 0.00285
[11]
  neutralization (Table 6 value): 0.0166
[12]
  neutralization (Table 6 value): 0.00673
[13]
  neutralization (Table 6 value): 0.000917
[14]
  neutralization (Table 6 value): 0.00134
[15]
  neutralization (Table 6 value): 0.0014
[16]
  neutralization (Table 6 value): 0.00146
[17]
  neutralization (Table 6 value): 0.0311
[18]
  neutralization (Table 6 value): 0.00121
[19]
  neutralization (Table 6 value): 0.00278
[20]
  neutralization (Table 6 value): 0.00129
[21]
  neutralization (Table 6 value): 0.00751
[22]
  neutralization (Table 6 value): 1.8e-05
[23]
  neutralization (Table 6 value): 0.00181
[24]
  neutralization (Table 6 value): 0.00473
[25]
  neutralization (Table 6 value): 0.00205
HIV Env of isolate CNE17
  neutralization (Table 6 value): 0.0101
HIV Env of isolate CNE53
  neutralization (Table 6 value): 0.00306
[26]
  neutralization (Table 6 value): 0.000789
[27]
  neutralization (Table 6 value): 0.00204
[28]
  neutralization (Table 6 value): 0.00214
[29]
  neutralization (Table 6 value): 0.00231
[30]
  neutralization (Table 6 value): 0.00513
[31]
  neutralization (Table 6 value): 0.0852
[32]
  neutralization (Table 6 value): 0.742
HIV Env of isolate CNE21
  neutralization (Table 6 value): 0.00124
HIV Env of isolate PVO.4
  neutralization (Table 6 value): 0.00517
[33]
  neutralization (Table 6 value): 0.00241
[34]
  neutralization (Table 6 value): 0.0015
[35]
  neutralization (Table 6 value): 0.00186
[36]
  neutralization (Table 6 value): 0.00114
HIV Env of isolate CNE58
  neutralization (Table 6 value): 0.0145
[37]
  neutralization (Table 6 value): 0.00465
[38]
  neutralization (Table 6 value): 0.00278
[39]
  neutralization (Table 6 value): 0.00108

B2: PGT-121 (antibody, V domains shown)
VH: QMQLQESGPGLVKPSETLSLTCSVSGASISDSYWSWIRRSPGKGLEWIGYVHKSGDTNYSPSLKSRVNLSLDTSKNQVSLSLVAATAADSGKYYCARTLHGRRIYGIVAFNEWFTYFYMDVWGNGTQVTVSS
VL: SDISVAPGETARISCGEKSLGSRAVQWYQHRAGQAPSLIIYNNQDRPSGIPERFSGSPDSPFGTTATLTITSVEAGDEADYYCHIWDSRVPTKWVFGGGTTLTVLG
[1]
  neutralization (Table 6 value): 0.00693
[2]
  neutralization (Table 6 value): 0.00144
[3]
  neutralization (Table 6 value): 0.00949
[4]
  neutralization (Table 6 value): 0.0114
[5]
  neutralization (Table 6 value): 0.14
[6]
  neutralization (Table 6 value): 0.122
[7]
  neutralization (Table 6 value): 0.00949
[8]
  neutralization (Table 6 value): 0.00915
HIV Env of isolate CNE20
  neutralization (Table 6 value): 0.00147
[9]
  neutralization (Table 6 value): 0.00872
[10]
  neutralization (Table 6 value): 0.0272
[11]
  neutralization (Table 6 value): 0.243
[12]
  neutralization (Table 6 value): 0.406
[13]
  neutralization (Table 6 value): 0.00534
[14]
  neutralization (Table 6 value): 0.00869
[15]
  neutralization (Table 6 value): 0.00843
[16]
  neutralization (Table 6 value): 0.00412
[17]
  neutralization (Table 6 value): 0.618
[18]
  neutralization (Table 6 value): 0.00325
[19]
  neutralization (Table 6 value): 0.0215
[20]
  neutralization (Table 6 value): 0.0334
[21]
  neutralization (Table 6 value): 0.891
[22]
  neutralization (Table 6 value): 0.0713
[23]
  neutralization (Table 6 value): 0.0111
[24]
  neutralization (Table 6 value): 0.0278
[25]
  neutralization (Table 6 value): 0.0144
HIV Env of isolate CNE17
  neutralization (Table 6 value): 0.225
HIV Env of isolate CNE53
  neutralization (Table 6 value): 0.00701
[26]
  neutralization (Table 6 value): 0.00021
[27]
  neutralization (Table 6 value): 0.00038
[28]
  neutralization (Table 6 value): 0.00382
[29]
  neutralization (Table 6 value): 0.028
[30]
  neutralization (Table 6 value): 0.0206
[31]
  neutralization (Table 6 value): 0.836
[32]
  neutralization (Table 6 value): 0.558
HIV Env of isolate CNE21
  neutralization (Table 6 value): 0.00525
HIV Env of isolate PVO.4
  neutralization (Table 6 value): 0.115
[33]
  neutralization (Table 6 value): 0.00679
[34]
  neutralization (Table 6 value): 0.000423
[35]
  neutralization (Table 6 value): 0.0162
[36]
  neutralization (Table 6 value): 0.00125
HIV Env of isolate CNE58
  neutralization (Table 6 value): 1.28
[37]
  neutralization (Table 6 value): 0.0427
[38]
  neutralization (Table 6 value): 0.029
[39]
  neutralization (Table 6 value): 0.00214
